The source of these data is the RNAGym collection of RNA variant scans (doi:10.1073/pnas.2313332121).

Sequences and labels used below:
B1: TPR t1 (parent)
chain: GACCAAUCUGCCCUCAGAGCUCGAGAACAUCUUCGGAUGCAGAGGAGGCAGGCUUCGGUGGCGCGAUAGCGCCAACGUCCUCAACCUCCAAUGCAUCCCACCACAUGAUGAUGCCUGAAGAGCCUUGGUUUUUUG

The data set covers variants of B1. The data set is described as follows: polymerase ribozyme fitness, log enrichment relative to wild type (log ratio); higher = more active; in vitro selection for triplet polymerase activity. In short, it runs like this: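 Mutant libraries of each subunit of a heterodimeric triplet polymerase ribozyme were built by PCR and transcribed. Each library went through one round of in vitro selection in triplicate: annealing with biotinylated primer, partner subunit and triplets, frozen incubation at −7 °C, gel excision of extended constructs, streptavidin-bead capture and RT-PCR. Input and output libraries were Illumina-sequenced; only genotypes with ≥10 input reads and ≥1 read per output were kept. Fitness is log2(genotype enrichment/wild-type enrichment), using inverse-variance-weighted replicate averages.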
Regarding C85U A111U G122U, the “polymerase ribozyme fitness (log ratio)” value was -4.09.
The value for C82A C89A A105U U112G was -4.43; that for C82A C85A G120U was -0.479; that for U81A U92A A118G was -5.64.
As for C82U U125A, the “polymerase ribozyme fitness (log ratio)” value was -0.249.
The result for C82U A111G reads -0.268; that for C82A G113U C114U, -1.55; that for C86U U92C C115A C124A G127A, -1.31.
The value for C85A C101G was -3.91; that for A84U U132C was -0.244.
The value for A83C C102A was -2.03; that for A83C U106A C123U was 1.46; that for A84U C102U was -2.
With U81C C115A G128C U131G, the “polymerase ribozyme fitness (log ratio)” value is -4.42.
The value for C86G G120C was 0.661; that for A83C A91G A111G was -1.85; that for C82A U112A was 1.06.
Consider C82A U129C, for which the “polymerase ribozyme fitness (log ratio)” value was -0.227.
The result for C82A U129A reads -2.69.
On to U81A U87C A121G, for which the “polymerase ribozyme fitness (log ratio)” value was 1.6.
The result for C85U U109A A121G reads -4.29; that for C86G U133A, -0.824.
The result for U81C C89A A111G reads -2.87; that for U81C C88A C123G G135U, 1.08.
The value for C85U U87A C89U was -2.94.
Consider C82A U116C C123A, for which the “polymerase ribozyme fitness (log ratio)” value is -2.84.
The result for C85A C114G reads -4.62; that for U81C C85A C89A, -4.24.
The result for C82A U126A reads -2.16; that for U87A G127U, -0.745.
The value for C82U A83G C101U was -0.587; that for A84U C124U was 0.806.
Consider A84C U96C, for which the “polymerase ribozyme fitness (log ratio)” value was -0.0472.
For C82A U133A, the “polymerase ribozyme fitness (log ratio)” value was -0.323.
With C82G A84U, the “polymerase ribozyme fitness (log ratio)” value turned out to be 0.00652.
For C85A G117C, the “polymerase ribozyme fitness (log ratio)” value is -5.07.
C85A C88U: the “polymerase ribozyme fitness (log ratio)” value was -2.64.
Turning to C82A C88A G113A, the “polymerase ribozyme fitness (log ratio)” value was -1.71.
U87A A111U: the “polymerase ribozyme fitness (log ratio)” value was -2.69.
The result for A83U A100C C114U reads -3.1.
Regarding C82G C114A, the “polymerase ribozyme fitness (log ratio)” value is -3.29.
A83G C114A: the “polymerase ribozyme fitness (log ratio)” value is -3.07.
A84U U112A G128U: the “polymerase ribozyme fitness (log ratio)” value was -1.28.
For U81C U87C A100U, the “polymerase ribozyme fitness (log ratio)” value is -1.38.
The value for A84U C94G was -1.24; that for C86A U106A was 0.119.
Turning to C82G U125A, the “polymerase ribozyme fitness (log ratio)” value is -0.86.
The value for A84G G93U G120U was -2.23; that for C82A G110C A121U was -3.02; that for C86G C115U was -2.67.
The value for C85U C94G C104U was -1.9.
For A83G G120U, the “polymerase ribozyme fitness (log ratio)” value is -0.6.
Take A84U G135U: the “polymerase ribozyme fitness (log ratio)” value was -1.03.
The result for C82G G117U C123G C124U reads -1.39; that for C86A G117U, -4.28; that for U81A U131G, -0.926.
As to C86A G110A, the “polymerase ribozyme fitness (log ratio)” value was -1.86.
The result for C85U C86A C94G G117C reads -6.16; that for C82A C99U G122A, -3.36.
The result for C86G C98U reads -1.59; that for A83C G93A G117U, -2.52.
The result for C82A G93C reads -1.06.
C82G C89A: the “polymerase ribozyme fitness (log ratio)” value was -2.23.
The result for A83C C94A reads -0.753; that for C85G C94U, -2.67; that for C86U G117C, -3.53.
The value for A84U A121C was 2.22; that for C82A C88A U96A was -1.57.
The result for C82A C115G U130G reads -1.11; that for U81G C82A, -2; that for C82G A91C, -2.29.
In the case of A83C G93A A111C G113U, the “polymerase ribozyme fitness (log ratio)” value is -4.96.
The result for C86G C102A reads -3.09.
The value for U87A A108G C114A U116A was -7.38; that for A83C C124G was 0.483.
The result for A83U C98A C123A U125A reads -4.08; that for C86A G113C, -3.02; that for C85G U112A, 0.357.
Regarding U81C C88U, the “polymerase ribozyme fitness (log ratio)” value is 0.221.
The value for A83C C114U was -1.78; that for U81G U87C was -2.82; that for C85G C88A C101U C124U was -0.871.
The result for C85A C88U U96G G113U reads -5.67; that for C82U C88U, -0.335; that for A83C A119G, -0.249.
Turning to C82U C88A G120U G128A, the “polymerase ribozyme fitness (log ratio)” value is -1.98.
The result for A83G U116A reads -3.6; that for U81G C82A A84C G120U, -1.07.
The result for C85A G113U reads -3.47.
The result for A83G A118U reads 0.587; that for A84G G120A C123A, -0.958; that for A83U C85U C123G C124G, 1.28.
On to C85A U106A, for which the “polymerase ribozyme fitness (log ratio)” value was -2.53.
The result for C82G G128A U133G reads -2.64.
The result for C86U C104U reads -0.296; that for C86A U109A, -5.39.
The value for U87A G93C was -1.3.
On to U87A U106G U125G, for which the “polymerase ribozyme fitness (log ratio)” value is -2.01.
The result for C82U C85A A121U reads 0.305.
The result for C85G C89U reads -0.78; that for C82G C86A C94G, -3.45; that for C82A G93A A100C C123U U125A, -1.
The value for A83C A95U U116C was -1.65.
Regarding C82G G110C, the “polymerase ribozyme fitness (log ratio)” value was -4.38.
The value for A84G C102A was -3.38.
On to C82U G128C, for which the “polymerase ribozyme fitness (log ratio)” value is -2.07.
As for C82U G128A, the “polymerase ribozyme fitness (log ratio)” value was -2.32.
The value for C82U U96C C98U C115A G117C was -6.13.
As for U81C U112A U125G, the “polymerase ribozyme fitness (log ratio)” value was -0.145.
With C85G C89U G110U, the “polymerase ribozyme fitness (log ratio)” value is -2.09.
The value for U87A U92A was -2.55.
The result for C86A C99U C101U A121G G122U reads -1.38; that for C85U U116A G120C, -1.14.
The result for A84G G128C reads -3.48; that for A83C G128C, -2.09.
Consider C86A, for which the “polymerase ribozyme fitness (log ratio)” value was -0.461.
In the case of C86G, the “polymerase ribozyme fitness (log ratio)” value is -0.82.
The result for C86U reads -0.178; that for C82A A105U, -2.27.
The value for C82U C88A A100U U112C was 0.47.
The result for A83C A84C G128A U131A reads -2.01.
As for C82U C86U G110A U133C, the “polymerase ribozyme fitness (log ratio)” value is -0.604.
The result for C85G U112A U126A reads -1.28; that for C82G C88A, -1.21; that for C86U A111U, -2.11.
Take A84G G120A U130G: the “polymerase ribozyme fitness (log ratio)” value is -0.15.
The result for A84G G113U reads -2.8; that for C85G G110A, -3.38; that for A83C C94U G128A, -2.4.
With C85G G120A, the “polymerase ribozyme fitness (log ratio)” value is -1.01.
The value for C86U U96A U106G was -4.25; that for A83G C86G A91C C94U U130A was -3.59.
Take C85A C94U U112C: the “polymerase ribozyme fitness (log ratio)” value was 0.116.
The value for C82G A83C was -0.655; that for C82U C97G was -4.81.
The result for C82U C97A reads -4.95; that for C82G U129G, -1.36; that for C86G C123A, -0.0336.
The result for C86G C123U reads 0.323.
For A84C G120A, the “polymerase ribozyme fitness (log ratio)” value stood at 0.816.
The result for U87A G128U reads -2.2.
The result for U81A U109A reads -5.72; that for C86U G93A, -0.143; that for A83C U96G U106A A121C, 1.64.
Regarding C85A U106A U125A, the “polymerase ribozyme fitness (log ratio)” value was -3.11.
The value for C82U A95C U106A was -0.318.
The value for C85A A111U was -4.18.
The value for C86A G107U A121U U132C was -3.32; that for A83U C99A G117C U129G was -5.87; that for A84U U129A was -1.65.
Turning to A83U C88U C101A, the “polymerase ribozyme fitness (log ratio)” value was -1.52.
The value for A83G G120U G122U was -0.467; that for C85U G93A G120U was -0.509.
The value for C82G C98G U109A C123G was -7.59.
The value for A83G G127C was -1.88; that for A83G A84C was -1.03; that for C86U U116C was -0.139.
As for C86A U129A, the “polymerase ribozyme fitness (log ratio)” value was -2.31.
The result for C85U U92C G127U G128A reads -6.04; that for C86A A100C, -1.66.
The result for A83C U112G reads -1.81; that for C86A C104A G120C U130A, -1.56; that for A84U C102A A103G U109G C114U, -3.45.
In the case of C85A C97A, the “polymerase ribozyme fitness (log ratio)” value is -7.29.
The result for A84C U96C A121G U125A reads 1.66.
The value for C85G C86U U92A was -5.3.
The value for C82A A91C was -1.72.
